The results in this text go back to publication PMC3091828 (Biochemistry, 2011).

By Kd is commonly meant the concentration at which binding is half-saturated. Read a low Kd as tighter binding.

In the assay the target is MBP-parkin (UniProt O60260 1-465). Description: fluorescence polarisation. A general note: In fluorescence polarisation assays a small probe gives low polarisation when free and higher when bound to something large.
Sequence of MBP-parkin (O60260 whole entry): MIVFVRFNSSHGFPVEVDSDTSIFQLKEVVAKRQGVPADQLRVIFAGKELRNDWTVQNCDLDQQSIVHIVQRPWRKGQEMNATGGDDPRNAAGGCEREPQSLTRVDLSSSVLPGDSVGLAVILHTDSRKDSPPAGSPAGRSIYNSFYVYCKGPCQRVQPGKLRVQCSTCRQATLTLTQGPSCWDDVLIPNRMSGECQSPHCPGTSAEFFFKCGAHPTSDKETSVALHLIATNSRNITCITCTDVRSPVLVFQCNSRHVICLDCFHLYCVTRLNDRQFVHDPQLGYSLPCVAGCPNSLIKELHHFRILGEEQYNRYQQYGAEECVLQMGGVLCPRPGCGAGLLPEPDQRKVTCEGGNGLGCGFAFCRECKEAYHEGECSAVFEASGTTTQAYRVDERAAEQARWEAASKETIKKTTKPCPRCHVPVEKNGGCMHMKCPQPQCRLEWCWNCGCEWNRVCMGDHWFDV

B1: CL-arrestin-1-F79C, bimane-labeled (natural protein)
chain: MKANKPAPNHVIFKKISRDKSVTIYLGKRDYIDHVERVEPVDGVVLVDPELVKGKRVYVSLTAAFRYGQEDIDVMGLSCRRDLYFSQVQVFPPVGASGATTRLQESLIKKLGANTYPFLLTFPDYLPSSVMLQPAPQDVGKSAGVDFEIKAFATHSTDVEEDKIPKKSSVRLLIRKVQHAPRDMGPQPRAEASWQFFMSDKPLRLAVSLSKEIYYHGEPIPVTVAVTNSTEKTVKKIKVLVEQVTNVVLYSSDYYIKTVAAEEAQEKVPPNSSLTKTLTLVPLLANNRERRGIALDGKIKHEDTNLASSTIIKEGIDKTVMGILVSYQIKVKLTVSGLLGELTSSEVATEVPFRLMHPQPEDPDTAKESFQDENFVFEEFARQNLKDAGEYKEEKTDQEAAMDE
modifications: monobromobimane label on the unique cysteine (F79C)
As for B1, the affinity, expressed as Kd, was 15.5 µM.

B2: CL-arrestin-3-F88C, bimane-labeled (natural protein, UniProt P32120-2 1-409, looked up)
chain: MGEKPGTRVFKKSSPNSKLTVYLGKRDFVDHLDKVDPVDGVVLVDPDYLKDRKVFVTLTVAFRYGREDLDVLGLSFRKDLFIANYQACPPTPNPPRPPTRLQERLLRKLGQHAHPFFFTIPQNLPSSVTLQPGPEDTGKALGVDFEIRAFVAKSLEEKSHKRNSVRLVIRKVQFAPEKPGPQPSAETTRHFLMSDRSLHLEASLDKELYYHGEPLNVNVHVTNNSTKTVKKIKVSVRQYADIVLFSTAQYKVPVAQVEQDDQVSPSSTFSKVYTITPLLSNNREKRGLALDGKLKHEDTNLASSTIVKEGANKEVLGILVSYRVKVKLVVSRGGDVSVELPFVLMHPKPHDHIALPRPQSAAPETDAPVDTNLIEFETNYATDDDIVFEDFARLRLKGLKDEDYDDQFS
modifications: monobromobimane label on the unique cysteine (F88C)
B2: the Kd came to 3.36 µM.
